US5792629A, “Isolated DNA encoding novel protease inhibitory polypeptide” (Mochida Pharmaceutical Co., Ltd., priority 1990, dated 1998)
Entries after “also recorded” stand apart in the source; their conditions may differ. Values belong to the molecule of their own block, whether it stands above or below them.

Assays:
FXa [1] = biological target: T1, FXa (Homo sapiens, UniProt P00742); assay: Human FXa-inhibiting activity, substrate S-2222; type: biochemical; set-up: purchased American Diagnostica Inc; conditions: for human FXa-inhibiting activity: purified sample, various concentrations, remaining activity vs buffer control (FIG. 18A-C)
T1 sequence (P00742 235-488 limits assumed): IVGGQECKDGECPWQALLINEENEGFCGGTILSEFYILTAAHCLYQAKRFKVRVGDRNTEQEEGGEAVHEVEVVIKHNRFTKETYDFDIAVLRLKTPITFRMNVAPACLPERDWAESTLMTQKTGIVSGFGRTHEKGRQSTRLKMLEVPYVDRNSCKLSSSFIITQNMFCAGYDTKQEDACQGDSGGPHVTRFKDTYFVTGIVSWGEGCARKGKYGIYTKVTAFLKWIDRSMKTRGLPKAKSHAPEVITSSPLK
T1 sequence (P00742 41-179 partner limits assumed): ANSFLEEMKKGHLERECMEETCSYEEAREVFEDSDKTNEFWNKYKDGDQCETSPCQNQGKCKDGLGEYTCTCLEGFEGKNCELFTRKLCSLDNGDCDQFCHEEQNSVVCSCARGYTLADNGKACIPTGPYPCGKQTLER
Experimental: The purified sample obtained in Example 1-(5) was dissolved in 100 μl of distilled water. Concentration of this solution was determined based on its bovine trypsin-inhibiting activity using the aforementioned UTI as a standard. The solution was then diluted to various concentration levels with 0.1% BSA/150 mM NaCl/5 mM CaCl2 /50 mM Tris-HCl buffer (pH 8.3) for use in the activity measurement. The UTI was also diluted in the same manner. Using a synthetic compound S-2222 (Daiichi Pure Chemicals Co., Ltd.) as a substrate, human FXa-inhibiting activities of the diluted test samples and the positive control were measured in accordance with the method of Ohno et al. (Ohno,H. et al., Thromb. Res., vol.19, pp.579-588, 1980) as follows.
Human FXa (American Diagnostica Inc.) was dissolved in distilled water to a concentration of 10 PEU/ml and the solution was further diluted with 0.1% BSA/150 mM NaCl/5 mM CaCl2 /50 mM Tris-HCl buffer (pH 8.3) to prepare 0.1 PEU/ml of FXa solution. 4 mM solution of S-2222 was prepared by dissolving it in distilled water and the solution was further diluted with 0.1% BSA/150 mM NaCl/5 MM CaCl2 /50 mM Tris-HCl buffer (pH 8.3) to obtain 2 mM solution of S-2222.
Next, 25 μl of the test sample or positive control was mixed with 100 μl of 0.1% BSA/150 mM NaCl/5 mM CaCl2 /50 mM Tris-HCl buffer (pH 8.3) and 25 μl of the FXa solution. After incubation at 37° C. for 10 minutes, 100 μl of the S-2222 solution was added to the mixture to start the reaction. The reaction was carried out at 37° C. for 30 minutes and then stopped by adding 50 μl of 50% acetic acid solution to the reaction mixture. Thereafter, absorbance at 405 nm was measured using a spectrophotometer.
In this instance, in order to eliminate absorbance of various solutions in the reaction mixture, a blank solution was prepared by mixing 25 μl of the FXa solution with 50 μl of 50% acetic acid and then with 25 μl of each test sample or the positive control, 100 μl of 0.1% BSA/150 mM NaCl/5 mM CaCl2 /50 mM Tris-HCl buffer (pH 8.3) and with 100 μl of the S-2222 solution.
In this figure, human FXa remaining activity was expressed by percentage based on the absorbance of a control reaction mixture in which 25 μl of 0.1% BSA/150 mM NaCl/5 mM CaCl2 /50 mM Tris-HCl buffer (pH 8.3) was used instead of the test sample or the positive control.

[2] = tested on: ORTHO Plasma Coagulation Control Level 1; assay: Measurement of activated partial thromboplastin time (aPTT); conditions: for effect on aPTT, anticoagulant activity: conclusion from Table 1; for aPTT (%): aPTT of distilled water control taken as 100%
Experimental: The COAGTEC (TE-600, ERMA OPTICAL WORKS LTD), a measurement instrument, was used and the following operation was conducted at 37° C. to measure the effect of polypeptide of the present invention on activated partial thromboplastin time (hereinafter abbreviated as aPTT).
First, purified samples obtained in Example 1 (5), Example 2 (5) and Example 3 (4) were dissolved in 100 μl of distilled water. Concentration of each solution was determined based on bovine trypsin-inhibiting activity using UTI as a standard. Each solution was then diluted to various concentration levels for activity measurement.
Afterward, 50 μl of the ORTHO Plasma Coagulation Control Level 1 (Ortho Diagnostic Systems Co., Ltd.) was put into glass tubes. 50 μl of the sample or 50 μl of distilled water as control was added. Furthermore, 100 μl of the Activated THROMBOFAX Reagent-Optimized (Ortho Diagnostic Systems Co., Ltd.) was added and then each glass tube was set in the apparatus. 100 μl of 0.02M CaCl2 was then added to each glass tube for the measurement, and aPTT for each test samples and the control was obtained.
The aPTT values of the samples are described in percentage when taking the aPTT value of control as 100%.

elastase = conditions: literature report; cited from earlier work
trypsin = conditions: literature report; cited from earlier work
chymotrypsin = conditions: literature report; cited from earlier work
FXa [3] = biological target: T1, FXa; conditions: literature reports, very high concentration; cited from earlier work
plasmin = plasmin (Homo sapiens, UniProt P00747); conditions: literature report; cited from earlier work
plasmin, sequence (P00747 581-810 limits assumed, species assumed): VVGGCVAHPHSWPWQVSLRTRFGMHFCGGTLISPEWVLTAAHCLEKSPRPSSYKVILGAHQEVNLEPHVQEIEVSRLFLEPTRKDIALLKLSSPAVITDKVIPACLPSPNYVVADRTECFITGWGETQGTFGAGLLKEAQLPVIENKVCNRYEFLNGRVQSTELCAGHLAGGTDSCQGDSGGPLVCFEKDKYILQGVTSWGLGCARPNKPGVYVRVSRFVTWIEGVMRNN
plasmin, sequence (P00747 97-580 partner limits assumed, species assumed): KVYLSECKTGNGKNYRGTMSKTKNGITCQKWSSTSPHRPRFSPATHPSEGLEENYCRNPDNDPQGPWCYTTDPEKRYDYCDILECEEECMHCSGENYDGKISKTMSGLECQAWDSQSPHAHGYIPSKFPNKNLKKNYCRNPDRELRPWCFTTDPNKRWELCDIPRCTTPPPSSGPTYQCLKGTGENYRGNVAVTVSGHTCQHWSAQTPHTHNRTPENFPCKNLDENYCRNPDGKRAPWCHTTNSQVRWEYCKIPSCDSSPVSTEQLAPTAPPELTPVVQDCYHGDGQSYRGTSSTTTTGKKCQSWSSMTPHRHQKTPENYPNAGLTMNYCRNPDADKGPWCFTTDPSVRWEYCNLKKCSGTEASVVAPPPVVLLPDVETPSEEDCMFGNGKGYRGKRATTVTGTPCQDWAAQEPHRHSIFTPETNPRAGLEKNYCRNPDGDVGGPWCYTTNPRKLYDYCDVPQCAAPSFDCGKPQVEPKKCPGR

Molecule: CC51: polypeptide defined by the amino acid sequence of formula 1, purified from culture supernatant of E. coli JE5505 (pM560) (CNLPIVRGPCRAFIQLWAFDAVKGKCVLFPYGGCQGNGNKFYSEKECREYC)
- human FXa-inhibiting activity (FXa [1]): activity was found
- effect on aPTT, anticoagulant activity [2]: have an effect to extend aPTT and anticoagulant activity
- aPTT (%) ([2]; final concentration 33 U/ml): 172%
- aPTT (%) ([2]; final concentration 167 U/ml): 256%

B3: TL66: polypeptide defined by formula 8; known enzyme-digested fragment of urinary trypsin inhibitor, made in E. coli JE5505 (pM551) (protein)
chain: TVAACNLPIVRGPCRAFIQLWAFDAVKGKCVLFPYGGCQGNGNKFYSEKECREYCGVPGDGDEELL
- inhibition of trypsin (trypsin): activities to inhibit
- human FXa-inhibiting activity (FXa [1]): activity was found
- inhibition of chymotrypsin (chymotrypsin): activities to inhibit
- effect on aPTT, anticoagulant activity [2]: have an effect to extend aPTT and anticoagulant activity
- aPTT (%) ([2]; final concentration 33 U/ml): 157%
- aPTT (%) ([2]; final concentration 167 U/ml): 239%
- inhibition of plasmin (plasmin): activities to inhibit

Further lines, with some results ahead:

- FXa-inhibiting activity (FXa [1]; experiments of the inventors, even at an extremely high concentration): no FXa-inhibiting activity was found
- human FXa-inhibiting activity (FXa [1]): activity was not found
B1: UTI: urinary trypsin inhibitor purified from human urine (Mochida Pharmaceutical), used as positive control (protein)
chain: AVLPQEEEGSGGGQLVTEVTKKEDSCQLGYSAGPCMGMTSRYFYNGTSMACETFQYGGCMGNGNNFVTEKECLQTCRTVAACNLPIVRGPCRAFIQLWAFDAVKGKCVLFPYGGCQGNGNKFYSEKECREYCGVPGDGDEELLRFSN
modifications: glycoprotein (sugar moieties, as the filing says in general of UTI)
- inhibition of elastase (elastase): shows the inhibition activities
- inhibition of trypsin (trypsin): shows the inhibition activities
- inhibition of chymotrypsin (chymotrypsin): shows the inhibition activities
- inhibition of FXa activity (FXa [3]): slightly inhibited; also recorded: inhibited the FXa activity
- inhibition of plasmin (plasmin): shows the inhibition activities

- human FXa-inhibiting activity (FXa [1]): activity was found
B2: TN70: polypeptide defined by the amino acid sequence of formula 3, purified from culture supernatant of E. coli JE5505 (pM552) (protein)
chain: TVAACNLPIVRGPCRAFIQLWAFDAVKGKCVLFPYGGCQGNGNKFYSEKECREYCGVPGDGDEELLRFSN
- effect on aPTT, anticoagulant activity [2]: have an effect to extend aPTT and anticoagulant activity
- aPTT (%) ([2]; final concentration 33 U/ml): 155%
- aPTT (%) ([2]; final concentration 167 U/ml): 230%
